A short description of the series: yeast display, Sf9 membrane polyspecificity reagent, FACS + sequencing; frameworks hold sequencing errors. Put shortly: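 Nanobodies came from a synthetic yeast display library in Saccharomyces cerevisiae BJ5465, induced with galactose for 36–48 hours and stained for 1 hour at 4 °C with 10% biotinylated, detergent-solubilized Sf9 membrane reagent. Cells were enriched on streptavidin microbeads and then FACS-sorted, with low and high (top ~1%) gates set on anti-HA fluorescence for expression and streptavidin fluorescence for reagent binding. Each polyreactivity label reflects the gate a clone came from. Genes were amplified by colony PCR, sequenced by MiSeq 2 × 250 and filtered by CDR length.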
For the sequence “QVQLVESGGGLVQAGGSLRLSCAAYGLTFYGNAMGWYRQAPGKERELVAAISRGGRTYYADSVKGRFTISRDNAKKTVYLQRNSLKPEDTAVYYCATVVSRVKQPFDMDYWGQGTQVTVSA”, the “polyreactivity (PSR sort gate)” value is “low polyreactivity”.
The entry for “QVQLVESGGGLVQAGGSLRLSCAAYGLTFYHYTMGWYRQAPGKERELVAAISSSGVTTYYADSVKGRFTISRDNAKNTVYLQMNSLKPEDTAVYYCAAVWYPDRVQPENGTTDSPGDYWGQGTQVTVSS” is “low polyreactivity”.
For the sequence “QVQLVESGGGLVQAGGSLRLSCAAYGNTLDVNAMGWYRQAPGKERELVPAITSGGSTNYADSVKGRFTISRDNAKNTVYLQMNSLKPEDTAVYYCAKGSGVTYVTETLNTDYGYWGQGTQVTVSS”, the “polyreactivity (PSR sort gate)” value is recorded as “low polyreactivity”.
For “QVQLVESGGGLVQAGGSLRLSCAAYGRIFDAYAMGWYRQAPGKERELVAAITQSGGSTFYADSVKGRFTNSRDNAKNTVYLQMNSLKPEDTAVYDSNTGLSGRRYGFGVSFGMDYWGQGTQVTVSS”, the “polyreactivity (PSR sort gate)” value is “low polyreactivity”.
The entry for “QVQLVESGGGLVQAGGSLRLSCAAYGRIFFNNAMGWYRQAPGKERELVAAINSGGRTNYADSVKGRFTISRDNAKNTVYLQMNSLKPEDTAVYYCNADDYPVWEFDYWGQGTQVTVSS” is “low polyreactivity”; for “QVQLVESGGGLVQAGGSLRLSCAAYGRIFLGYAMGWYIQAPGKERELVAVISYSGTRTYYADSVKGRFTISRDNAKNTVYLQMNSLKPEDTAVYYCNARANGFKDGYWGQGTQVTVSS” it is “high polyreactivity”.
The entry for “QVQLVESGGGLVQAGGSLRLSCAAYGRNFTYYAMGWYRQAPGKERELVAANSRSGGRTYYADSVKGRFTISRDNAKNTVYLQMNSLKPEDTGVYYCAADRLSLRAYDYWGQGTQVNVSS” is “high polyreactivity”; for “QVQLVESGGGLVQAGGSLRLSCAAYGRTFWRNAMGWYRQAPGKEREWVAAISRSGDSTRYADSLKGRFTISRDNAKNTFYLQMNSLKPEDTAVYYCNKLGTRVYEMDYWGQGTQVTVSS” it is “high polyreactivity”.
Regarding “QVQLVESGGGLVQAGGSLRLSCAAYGRTIPRYAIGWSRQAPGKQRDFVDSISFSSGSTYYADSVKGRFTISRDNAKNTVYVQMKSMKAEDTAVDYSNDIPGSRYYGYRLYYYWGQGTQVTVSS”, the “polyreactivity (PSR sort gate)” value is recorded as “high polyreactivity”.
As for “QVQLVESGGGLVQAGGSLRLSCAAYGRTIRVYAMVWYRQAPGKERELVAAITSGDSTYYADSVKGRFTISRDNAKNTVYLQMNSLKPEDTAVYYCAVNTRRYWYGYWGQGTQVTVSS”, the “polyreactivity (PSR sort gate)” value is “high polyreactivity”.
With “QVQLVESGGGLVQAGGSLRLSCAAYGRTISRNTMAWYRQAPGKERELVAGITYGGDRTYYADSVKGRFTISRDNAKNTVYLQMNSLKPEDTSVYYCAAPWYWKGLRDYWGQGTQVTVSS” the entry was “low polyreactivity”.
With “QVQLVESGGGLVQAGGSLRLSCAAYGSIFRVYAMGWYRQAPGKEREFVAAITRRGTRTYYADSVKGRFTISRDNAKNTVYLQMNSLKPEDTAVYYCAAYFTDGLFEYWGQGTQVTVSS” the entry was “low polyreactivity”.
The entry for “QVQLVESGGGLVQAGGSLRLSCAAYGSIFSWNAMGWYIQAPRKERELVAGITWSGGGTSYADSVKGRFTISRDNAKNTVYLQMNSLKPEDTAVYYCAKEWIFEFNYWGQGTQVTVSS” is “low polyreactivity”; for “QVQLVESGGGLVQAGGSLRLSCAAYGSIFYFNAMGRYRQAPGKERELVASITSGGSTNYADSVKGRFTISRDNAKNTVYLQMNSLKPEETEVYYCNARFPYLSRWLVRGLASYDYWGQGTQVTVSS” it is “low polyreactivity”.
As for “QVQLVESGGGLVQAGGSLRLSCAAYGSIFYYNAMGWYRQAPGKERELVAAITKSGTRTNYADSVKGRFTLSRDNAKNTVYLQMNSLKPEDTAVYYCAAEDQYYRYLFAYEYWGQGTQVTVSS”, the “polyreactivity (PSR sort gate)” value was “high polyreactivity”.
The entry for “QVQLVESGGGLVQAGGSLRLSCAAYGSILYVYAMGWYRQAPGKERELVAVITAGGSTNYADSVKGRFTISRDNAKNTVYLQMNSLKPEHSAVYYCAADPYSVYGGDYWGQGTQVTVSS” is “low polyreactivity”.
As for “QVQLVESGGGLVQAGGSLRLSCAAYGSTFYNNVMGWYRPAPGKERELVAAINSGGRTYYADSVKGRFTISRDNAKNTVYLQMNSLKPEDTAVYYCAVGYGRAGRMDYWGQGTQVTVSS”, the “polyreactivity (PSR sort gate)” value was “high polyreactivity”.
With “QVQLVESGGGLVQAGGSLRLSCAAYGSTLTWNAMGWYRQAPGKERELVAAITGVGSTNYADSVKGRFTISRDNAKNTVYLQMNSLKPEDSAVYYCAAQGSGSTLYEYWGQGTQVTVSS” the entry was “low polyreactivity”.
With “QVQLVESGGGLVQAGGSLRLSCAAYSYVMGWYRQAPGKERELVAAISQSGGSTYYADSVKGRFTISRDNAKNTVYLQMNSLKPEDTADYYCAARREPYQYNQYYSWGQGTQVTVSS” the entry was “high polyreactivity”; with “QVQLVESGGGLVQAGGSLRLSCAAYVSIFGDNALGWYRQAPGKEMELVAAISSDGNTNYADSVKGRFTISRDNAKNTVYLQMNSLKPEDTAVYYCAARWGYRRVRANSFYYWGQGTQVTVSS”, “low polyreactivity”.
In the case of “QVQLVESGGGLVQAGGSLRLSCAAYYAMGWYRQAPGKERELVAAIDDGTSTNYADSVKGRFTISRDNAKNTVYLQMKSLKPEDTAVYYCNKLSEVTYYGSKFDYWGQGTQVTVSS”, the “polyreactivity (PSR sort gate)” value was “low polyreactivity”.
With “QVQLVESGGGLVQAGGSLRLSCAAYYYNMGWYRQAPGKESELVASITWSDVSTYYADSVKRRFTISRDNAKNTVYLQMNSLKPEDTAVYYCAKGTWADAYGYWGQGTQVTVSS” the entry was “low polyreactivity”; with “QVQLVESGGGLVQAGGSLRLSCADSASIFRNAMGWYRQAPRKERELVAGIRWSDGSTNYADSVKGRFTISRDNANITVYLQMNSLKPEDTAVYYCAKGAYFARRMYYWGQGTQVTVSS”, “low polyreactivity”.
On to “QVQLVESGGGLVQAGGSLRLSCADSASTLVVNGMGWYRQAPGKERELVASISSDGSTNYADSVKGRFTISRDNAKNTVYLQMNSLKPEDTAFYYCAADEGNGQASLSSNLYDYWGQGTQVTVSS”, for which the “polyreactivity (PSR sort gate)” value is listed as “low polyreactivity”.
Consider “QVQLVESGGGLVQAGGSLRLSCADSGFILDYNTMGWYRQAPGKERELVAAISSSGDTTYYADSVKGRFTISRDNAKNTVYLQMNSLKPEDTAVYYCAREYGDGYEYWGQGTQVTVSS”, for which the “polyreactivity (PSR sort gate)” value is reported as “low polyreactivity”.
The entry for “QVQLVESGGGLVQAGGSLRLSCADSGFTFSSYAMGWYRQAPGKDRELVAAISTRGGSTYYADSVKGRFTISRDYANKTVYLQMNSLKPEDTAVYYCATGGRGGRRYEYWGQGTQVTVSS” is “low polyreactivity”; for “QVQLVESGGGLVQAGGSLRLSCADSGFTFYFYAMGWYRQAPGKEREFIATINFISGSTYYADSVKGGVTISRDNAKNTVYLQMNSLKPEDTAVYYCNKPFPYYPDGPNGYDYWGQGTQVTVSS” it is “low polyreactivity”.
With “QVQLVESGGGLVQAGGSLRLSCADSGITFDWNTMGWYRQAPGKERELVAAITFRSGSTYYADSVKGRFTISRDNAKNTVYLQMNSLKPEDTAVYYCNKDTAYTSPRFDYWGQGTQVTVSS” the entry was “high polyreactivity”; with “QVQLVESGGGLVQAGGSLRLSCADSGITFSRYAMGWYRQAPGKERELVAAITRRGGNTYYADSVKGRFTISRDIAKNTVYLQMNSLKPVDTAVYYCASGYTYYGGDYWGQGTQVTVSS”, “high polyreactivity”; with “QVQLVESGGGLVQAGGSLRLSCADSGITFYGSAMGWYRQAPGQERELVAAISKSGGSTHYADSVKGRFTISRDNAKNTVYLQMNSLKPEDTAVYYCAAAYWTRLRRMDYWGQGTQVTVSS”, “low polyreactivity”.
Regarding “QVQLVESGGGLVQAGGSLRLSCADSGNTFYVDTMGWYREAPGKESELVAAIYSTGDRTYYADSLKGRFTISRYKAKNTVYLQMNRLKPEDTAVYYWAARLYRGSLGYYFWGQVTQVTVSS”, the “polyreactivity (PSR sort gate)” value is “high polyreactivity”.
Take “QVQLVESGGGLVQAGGSLRLSCADSGRIFATNAMGWYRHAPGKERELVATITRSAGRTYYADSVKGRFTISRDNAKNTVYLQMNSLKPEDTAVYYCAASYWDTERGYREYDYWGQGTQVTVSS”: the “polyreactivity (PSR sort gate)” value is “low polyreactivity”.
With “QVQLVESGGGLVQAGGSLRLSCADSGRIFGPYAMGWYRKAPGKERELVAAIRASSSTYYADSVKGRFTISRDNAKNTVYLQMNSLKPEDTAVYYCAADWYYGYAWKYGYWGQGTQVTVSS”, the “polyreactivity (PSR sort gate)” value was “low polyreactivity”.
As to “QVQLVESGGGLVQAGGSLRLSCADSGRIFGTSAMGWYRQAPGKERELVATISYSSGRTYYADSVKGRFTISRDNAKNTVYLQMNSLKPEDTAVYYCARRRRSGSRQYYYWGQGTQVTVSS”, the “polyreactivity (PSR sort gate)” value was “high polyreactivity”.
“QVQLVESGGGLVQAGGSLRLSCADSGRIFGYNAMGWYRQAPGKEREFVAAITTSGGSTYYADSVKGRFTISRDNAKKTVFLQMTSLKPEDTAVYYCARDSLHVFYPYASDDYWGQGTQVTVSS”: the “polyreactivity (PSR sort gate)” value was “low polyreactivity”.
For “QVQLVESGGGLVQAGGSLRLSCADSGRIFVGNAMGWYRQAHGKERELVAAITSSGGSTYYADSVKGRFTISRDNAKNTVYLQMNSLKPEDTAVYYCAARVPYRLKAQPFSNRGYYWGQGTQVTVSS”, the “polyreactivity (PSR sort gate)” value is given as “high polyreactivity”.
The entry for “QVQLVESGGGLVQAGGSLRLSCADSGRIFYANAMGWYRQAPGKERELVAAISSGGSTYYADSVKGRFTISRDNAKNTVYLQMNSLKPEDTAVYYCAVYTHKIVRPEYDYWGQGTQVTVSA” is “low polyreactivity”; for “QVQLVESGGGLVQAGGSLRLSCADSGRIITVYDMGWYRQAPGKEREYVAAISDTDSSTYADSVKGRFTISRDNAKNTVYLQMNSLKPEDTAVYYCNAVGDIFGRVSTEYEYWGQGTQVTVSA” it is “low polyreactivity”.
On to “QVQLVESGGGLVQAGGSLRLSCADSGRIIYKNAMGWYRQAPGKERELVAAITSSGGSTYYADSVKGRFTISRDNAKNTVYLQMNSLTPVDTAVYYCAAYAYVRFGKLNYWGQGTQVTVSS”, for which the “polyreactivity (PSR sort gate)” value is given as “low polyreactivity”.
With “QVQLVESGGGLVQAGGSLRLSCADSGRTFGSNAMGWYRQAPGKERELVAAISSTVSTNYADSVKGRFTISRDNAKNTVYLQMNSLKPEDTAVYYCNVTRHYSYVSEYDYWGQGTQVTVSS” the entry was “low polyreactivity”; with “QVQLVESGGGLVQAGGSLRLSCADSGRTFRGNAMGWYRQAPGKERELVAAISWSGDSTYYADSVKGRFTISRDNAKNSVYLQMNSLKPEDTAVYYCNRDYGLQRYRGWYQYNYWGQGTQVTVSS”, “low polyreactivity”.

(Values after the nanobody polyreactivity screen of Harvey et al. (2022).)
